Literature values in publication PMC12394151.

Biological target: IL-6R (Homo sapiens) (UniProt P08887)
Assay: BLI
Conditions: cited from earlier work

Chain of IL-6R (Homo sapiens) (P08887 20-355): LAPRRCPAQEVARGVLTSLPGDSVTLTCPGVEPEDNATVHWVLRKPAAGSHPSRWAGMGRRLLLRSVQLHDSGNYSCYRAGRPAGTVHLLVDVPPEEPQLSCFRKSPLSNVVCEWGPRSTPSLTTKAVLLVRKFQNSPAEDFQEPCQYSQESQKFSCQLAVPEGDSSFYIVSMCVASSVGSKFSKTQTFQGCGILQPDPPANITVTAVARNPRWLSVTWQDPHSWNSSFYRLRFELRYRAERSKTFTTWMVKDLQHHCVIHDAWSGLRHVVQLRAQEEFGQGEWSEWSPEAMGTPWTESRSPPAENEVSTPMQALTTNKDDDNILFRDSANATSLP

Tocilizumab
Kd: 38.8 nM
